According to patent publication US20110230370A1 (CALIFORNIA INSTITUTE OF TECHNOLOGY, published 2011):

Tests used:
[1] = molecular target: ^MNMATα2f (wild-type full-length MATα2, C-terminally flag-tagged) (S. cerevisiae) (UniProt P0CY08); experiment: cell-based or functional assay
[2] = molecular target: T1, Doa10myc13 (full-length, C-terminally myc13-tagged S. cerevisiae Doa10 E3 Ub ligase) (S. cerevisiae, UniProt P40318 1-1319); experiment: X-peptide pulldown from yeast extract, anti-myc immunoblot
T1 construct: mature; also called mycn-tagged Doa10; Doa10men
T1 sequence (looked up): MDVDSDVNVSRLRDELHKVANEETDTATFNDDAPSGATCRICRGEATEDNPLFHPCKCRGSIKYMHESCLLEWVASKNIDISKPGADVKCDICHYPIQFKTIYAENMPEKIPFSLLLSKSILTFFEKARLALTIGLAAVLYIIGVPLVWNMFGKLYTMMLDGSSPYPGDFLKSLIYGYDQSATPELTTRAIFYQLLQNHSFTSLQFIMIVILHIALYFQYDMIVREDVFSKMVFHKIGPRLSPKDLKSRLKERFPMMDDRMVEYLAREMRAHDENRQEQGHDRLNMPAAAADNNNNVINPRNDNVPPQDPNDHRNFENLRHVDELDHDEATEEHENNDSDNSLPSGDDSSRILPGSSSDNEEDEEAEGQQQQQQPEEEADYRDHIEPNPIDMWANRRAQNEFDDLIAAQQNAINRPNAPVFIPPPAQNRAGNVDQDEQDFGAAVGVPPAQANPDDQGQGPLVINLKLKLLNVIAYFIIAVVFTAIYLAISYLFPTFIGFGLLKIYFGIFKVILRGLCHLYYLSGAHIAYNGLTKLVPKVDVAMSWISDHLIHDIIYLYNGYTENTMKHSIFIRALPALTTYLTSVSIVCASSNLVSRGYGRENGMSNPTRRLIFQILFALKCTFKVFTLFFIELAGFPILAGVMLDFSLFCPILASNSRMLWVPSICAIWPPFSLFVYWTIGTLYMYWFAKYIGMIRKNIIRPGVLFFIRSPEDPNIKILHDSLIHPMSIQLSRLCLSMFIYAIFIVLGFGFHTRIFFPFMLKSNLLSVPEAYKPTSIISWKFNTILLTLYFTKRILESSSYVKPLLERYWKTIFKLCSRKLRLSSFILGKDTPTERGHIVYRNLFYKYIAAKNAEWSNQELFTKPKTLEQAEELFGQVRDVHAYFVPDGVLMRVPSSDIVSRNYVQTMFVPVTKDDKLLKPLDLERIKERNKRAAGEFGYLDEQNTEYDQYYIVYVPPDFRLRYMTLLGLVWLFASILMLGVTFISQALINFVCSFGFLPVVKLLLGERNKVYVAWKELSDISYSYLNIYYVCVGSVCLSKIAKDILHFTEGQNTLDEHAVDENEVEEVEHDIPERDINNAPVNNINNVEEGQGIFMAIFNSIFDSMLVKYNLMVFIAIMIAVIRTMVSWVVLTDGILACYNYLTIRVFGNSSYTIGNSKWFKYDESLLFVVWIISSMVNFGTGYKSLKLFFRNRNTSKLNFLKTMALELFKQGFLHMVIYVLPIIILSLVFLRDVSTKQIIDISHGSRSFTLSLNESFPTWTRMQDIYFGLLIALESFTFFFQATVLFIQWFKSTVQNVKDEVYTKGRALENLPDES

“Doa10 E3 Ub ligase (endogenous, S. cerevisiae) (from UniProt P40318 1-1319)” showed a level of MATα2f at 0 min (end of pulse) in wild-type cells relative to doa10Δ cells (100%), Ub-reference ^35S-pulse-chase [1] of 55%.

Work on “Doa10 E3 Ub ligase (endogenous, S. cerevisiae) (from UniProt P40318 1-1319) (enzyme)” yielded an in vivo half-life of ^MNMATα2f, ^35S-pulse-chase, doa10Δ ubc4Δ cells (Doa10 absent) [1] of 35 min and an in vivo half-life of ^MNMATα2f, ^35S-pulse-chase, ubc4Δ cells (Doa10 present) [1] of 9 min.

B1: synthetic peptide XIFSTDTGPGGC with X=Arg (peptide)
peptide: RIFSTDTGPGGC
notes: also called nsP4-derived control peptide (X=Arg)
B1: no binding [2].

B2: synthetic peptide XIFSTDTGPGGC with X=Met (peptide)
peptide: MIFSTDTGPGGC
notes: also called nsP4-derived control peptide (X=Met)
B2: no binding [2].

B3: synthetic peptide XIFSTDTGPGGC with X=Phe (peptide)
peptide: FIFSTDTGPGGC
notes: also called nsP4-derived control peptide (X=Phe)
B3: no binding [2].
